{
  "source": "paper PMC3432581",
  "about": "(Methods in molecular biology (Clifton, N.J.), 2011)",
  "proteins": {"B1": {"name": "CCAAT/Enhancer Binding Protein α (C/EBPα) (natural protein, UniProt P05554 244-358, looked up)", "chain": "GPGGSLKGLAGPHPDLRTGGGGGGGAGAGKAKKSVDKNSNEYRVRRERNNIAVRKSRDKAKQRNVETQQKVLELTSDNDRLRKRVEQLSRELDTLRGIFRQLPESSLVKAMGNCA"}},
  "molecular_target": "the molecule itself",
  "experiment": "FRET or BRET",
  "data": [
    {"protein": "B1", "values": [
      {"measurement": "BRET ratio (Y ÷ B)", "value": 0.39}
    ]}
  ]
}
